# Experimental data from patent US20110269680A1 (PANACEA BIOTEC, published 2011).
# Numbered stars: 1 amine (or outer) side, 2 acyl side, 3 side chain; on linkers, the order of the positions; unused ones are H or OH. Square brackets hold non-standard residues; d marks the D form. Ends that are not written are not given here. X2 = 2‑amino‑1‑O‑methyl‑2‑deoxy‑alpha‑D‑glucopyranuronic acid, CO[C@H]1O[C@H](C(=O)[*:2])[C@@H](O)[C@H](O)[C@H]1N[*:1]; 2Furoyl(5-aminomethyl) = O=C(c1ccc(CN[*:1])o1)[*:2]; Aib = CC(C)(N)C(=O)O
# B1: Seq ID No. 09 (peptide)
# peptide: HXEGTFTSDXSSYLEGQAAKEFIXWLVKGRG
# modifications: Xaa1 at position 2 is furan aminoacid (5-aminomethyl-furan-2 carboxylic acid); Xaa2 at position 10 and Xaa3 at position 24 are dialkylated aminoacid (alpha-aminoisobutyric acid); C-terminal amide (Gly-NH2)
# B2: Seq ID No. 11 (peptide)
# peptide: HXGTFTSDVSSYLEGQAAKEFIAWLVKXR
# modifications: Xaa1 at position 2 is furan aminoacid (5-aminomethyl-furan-2 carboxylic acid); Xaa2 at position 28 is dialkylated aminoacid (alpha-aminoisobutyric acid); C-terminal amide (Arg-NH2)
# B3: Seq ID No. 07 (peptide)
# peptide: H[X2]GTFTSDVSSYLEGQAAKEFIAWLVKGR-NH2
# modifications: N-terminus assumed
# SMILES: CC[C@H](C)[C@H](NC(=O)[C@H](Cc1ccccc1)NC(=O)[C@H](CCC(=O)O)NC(=O)[C@H](CCCCN)NC(=O)[C@H](C)NC(=O)[C@H](C)NC(=O)[C@H](CCC(N)=O)NC(=O)CNC(=O)[C@H](CCC(=O)O)NC(=O)[C@H](CC(C)C)NC(=O)[C@H](Cc1ccc(O)cc1)NC(=O)[C@H](CO)NC(=O)[C@H](CO)NC(=O)[C@@H](NC(=O)[C@H](CC(=O)O)NC(=O)[C@H](CO)NC(=O)[C@@H](NC(=O)[C@H](Cc1ccccc1)NC(=O)[C@@H](NC(=O)CNC(=O)[C@H]1O[C@H](OC)[C@H](NC(=O)[C@@H](N)Cc2c[nH]cn2)[C@@H](O)[C@@H]1O)[C@@H](C)O)[C@@H](C)O)C(C)C)C(=O)N[C@@H](C)C(=O)N[C@@H](Cc1c[nH]c2ccccc12)C(=O)N[C@@H](CC(C)C)C(=O)N[C@H](C(=O)N[C@@H](CCCCN)C(=O)NCC(=O)N[C@@H](CCCNC(=N)N)C(N)=O)C(C)C
# B4: Seq ID No. 04 (peptide)
# peptide: H[2Furoyl(5-aminomethyl)]EGTFTSD[Aib]SSYLEGQAAKEFI[Aib]WLVKGR-NH2
# modifications: N-terminus assumed
# SMILES: CC[C@H](C)[C@H](NC(=O)[C@H](Cc1ccccc1)NC(=O)[C@H](CCC(=O)O)NC(=O)[C@H](CCCCN)NC(=O)[C@H](C)NC(=O)[C@H](C)NC(=O)[C@H](CCC(N)=O)NC(=O)CNC(=O)[C@H](CCC(=O)O)NC(=O)[C@H](CC(C)C)NC(=O)[C@H](Cc1ccc(O)cc1)NC(=O)[C@H](CO)NC(=O)[C@H](CO)NC(=O)C(C)(C)NC(=O)[C@H](CC(=O)O)NC(=O)[C@H](CO)NC(=O)[C@@H](NC(=O)[C@H](Cc1ccccc1)NC(=O)[C@@H](NC(=O)CNC(=O)[C@H](CCC(=O)O)NC(=O)c1ccc(CNC(=O)[C@@H](N)Cc2c[nH]cn2)o1)[C@@H](C)O)[C@@H](C)O)C(=O)NC(C)(C)C(=O)N[C@@H](Cc1c[nH]c2ccccc12)C(=O)N[C@@H](CC(C)C)C(=O)N[C@H](C(=O)N[C@@H](CCCCN)C(=O)NCC(=O)N[C@@H](CCCNC(=N)N)C(N)=O)C(C)C
# B5: Seq ID No. 08 (peptide)
# peptide: H[2Furoyl(5-aminomethyl)]GTFTSDVSSYLEGQAAKEFIAWLVKGR-NH2
# modifications: N-terminus assumed
# SMILES: CC[C@H](C)[C@H](NC(=O)[C@H](Cc1ccccc1)NC(=O)[C@H](CCC(=O)O)NC(=O)[C@H](CCCCN)NC(=O)[C@H](C)NC(=O)[C@H](C)NC(=O)[C@H](CCC(N)=O)NC(=O)CNC(=O)[C@H](CCC(=O)O)NC(=O)[C@H](CC(C)C)NC(=O)[C@H](Cc1ccc(O)cc1)NC(=O)[C@H](CO)NC(=O)[C@H](CO)NC(=O)[C@@H](NC(=O)[C@H](CC(=O)O)NC(=O)[C@H](CO)NC(=O)[C@@H](NC(=O)[C@H](Cc1ccccc1)NC(=O)[C@@H](NC(=O)CNC(=O)c1ccc(CNC(=O)[C@@H](N)Cc2c[nH]cn2)o1)[C@@H](C)O)[C@@H](C)O)C(C)C)C(=O)N[C@@H](C)C(=O)N[C@@H](Cc1c[nH]c2ccccc12)C(=O)N[C@@H](CC(C)C)C(=O)N[C@H](C(=O)N[C@@H](CCCCN)C(=O)NCC(=O)N[C@@H](CCCNC(=N)N)C(N)=O)C(C)C
# B6: Seq ID No. 02 (peptide)
# peptide: H[2Furoyl(5-aminomethyl)]GTFTSDVSSYLEGQAAKEFIAWLVKGRG-NH2
# modifications: N-terminus assumed
# SMILES: CC[C@H](C)[C@H](NC(=O)[C@H](Cc1ccccc1)NC(=O)[C@H](CCC(=O)O)NC(=O)[C@H](CCCCN)NC(=O)[C@H](C)NC(=O)[C@H](C)NC(=O)[C@H](CCC(N)=O)NC(=O)CNC(=O)[C@H](CCC(=O)O)NC(=O)[C@H](CC(C)C)NC(=O)[C@H](Cc1ccc(O)cc1)NC(=O)[C@H](CO)NC(=O)[C@H](CO)NC(=O)[C@@H](NC(=O)[C@H](CC(=O)O)NC(=O)[C@H](CO)NC(=O)[C@@H](NC(=O)[C@H](Cc1ccccc1)NC(=O)[C@@H](NC(=O)CNC(=O)c1ccc(CNC(=O)[C@@H](N)Cc2c[nH]cn2)o1)[C@@H](C)O)[C@@H](C)O)C(C)C)C(=O)N[C@@H](C)C(=O)N[C@@H](Cc1c[nH]c2ccccc12)C(=O)N[C@@H](CC(C)C)C(=O)N[C@H](C(=O)N[C@@H](CCCCN)C(=O)NCC(=O)N[C@@H](CCCNC(=N)N)C(=O)NCC(N)=O)C(C)C
# B7: Seq ID No. 10 (peptide)
# peptide: H[2Furoyl(5-aminomethyl)]GTFTSD[Aib]SSYLEGQAAKEFI[Aib]WLVKGRG-NH2
# modifications: N-terminus assumed
# SMILES: CC[C@H](C)[C@H](NC(=O)[C@H](Cc1ccccc1)NC(=O)[C@H](CCC(=O)O)NC(=O)[C@H](CCCCN)NC(=O)[C@H](C)NC(=O)[C@H](C)NC(=O)[C@H](CCC(N)=O)NC(=O)CNC(=O)[C@H](CCC(=O)O)NC(=O)[C@H](CC(C)C)NC(=O)[C@H](Cc1ccc(O)cc1)NC(=O)[C@H](CO)NC(=O)[C@H](CO)NC(=O)C(C)(C)NC(=O)[C@H](CC(=O)O)NC(=O)[C@H](CO)NC(=O)[C@@H](NC(=O)[C@H](Cc1ccccc1)NC(=O)[C@@H](NC(=O)CNC(=O)c1ccc(CNC(=O)[C@@H](N)Cc2c[nH]cn2)o1)[C@@H](C)O)[C@@H](C)O)C(=O)NC(C)(C)C(=O)N[C@@H](Cc1c[nH]c2ccccc12)C(=O)N[C@@H](CC(C)C)C(=O)N[C@H](C(=O)N[C@@H](CCCCN)C(=O)NCC(=O)N[C@@H](CCCNC(=N)N)C(=O)NCC(N)=O)C(C)C
# B8: Seq ID No. 05 (peptide)
# peptide: HGEGTFTSDXSSYLEGQAAKEFIXWLVKGR
# modifications: Xaa1 at position 10 and Xaa2 at position 24 are dialkylated aminoacid (alpha-aminoisobutyric acid); C-terminal amide (Arg-NH2)
# Molecular target: GLP-1 receptor
# Test: cell-based or functional assay
row,Binder,"EC50, Receptor Functional assay (intracellular cAMP in CHO/GLP-1R cells) [nM]"
1,B1,1
2,H[2Furoyl(5-aminomethyl)]EGTFTSDVSSYLEGQAAKEFIAWLVKGR-NH2 [Seq ID No. 03],0.061
3,H[X2]EGTFTSDVSSYLEGQAAKEFIAWLVKGR-NH2 [Seq ID No. 06],0.838
4,B2,0.102
5,B3,0.056
6,B4,0.072
7,B5,0.601
8,B6,0.043
9,H[2Furoyl(5-aminomethyl)]GTFTSDVLSYQEGQAAKLFIEWLVKGR-NH2 [Seq ID No. 12],2.24
10,B7,3.38
11,H[2Furoyl(5-aminomethyl)]EGTFTSDVSSYLEGQAAKEFIAWLVKGRG-NH2 [Seq ID No. 01],0.103
12,B8,0.083
